Experimental data published in the supplement of paper PMC11246515.
± gives the standard deviation of the averaged measurements.

Test: total protein half-life in vivo (active degradation + dilution); higher = more stable protein
[1] = E. coli NCM3722 delta-clpP delta-lon delta-hslV, growth: N-lim chemostat, doubling time 6 h
[2] = E. coli NCM3722 delta-clpP, growth: N-lim chemostat, doubling time 6 h
[3] = E. coli NCM3722 delta-hslV, growth: N-lim chemostat, doubling time 6 h
[4] = E. coli NCM3722 delta-lon, growth: N-lim chemostat, doubling time 6 h
[5] = E. coli NCM3722 delta-smpB, growth: N-lim chemostat, doubling time 6 h
[6] = wild type E. coli NCM3722, growth: C-lim chemostat, doubling time 3 h
[7] = wild type E. coli NCM3722, growth: C-lim chemostat, doubling time 6 h
[8] = wild type E. coli NCM3722, growth: C-lim chemostat, doubling time 12 h
[9] = wild type E. coli NCM3722, growth: N-lim chemostat, doubling time 6 h
[10] = wild type E. coli NCM3722, growth: N-lim chemostat, doubling time 12 h
[11] = wild type E. coli NCM3722, growth: P-lim chemostat, doubling time 6 h
[12] = wild type E. coli NCM3722, growth: P-lim chemostat, doubling time 12 h

Row | Sequence | total protein half-life in vivo [1] | total protein half-life in vivo [2] | total protein half-life in vivo [3] | total protein half-life in vivo [4] | total protein half-life in vivo [5] | total protein half-life in vivo [6] | total protein half-life in vivo [7] | total protein half-life in vivo [8] | total protein half-life in vivo [9] | total protein half-life in vivo [10] | total protein half-life in vivo [11] | total protein half-life in vivo [12]
1 | MPKPGILKSKSMFCVIYRSSKRDQTYLYVEKKDDFSRVPEELMKGFGQPQLAMILPLDGRKKLVNADIEKVKQALTEQGYYLQLPPPPEDLLKQHLSVMGQKTDDTNK [P0AB43] | 4.94 ± 0.22 h | 4.28 ± 0.62 h | 3.56 ± 0.33 h | 4.78 ± 0.62 h | 3.88 ± 0.55 h | 2.71 ± 0.15 h | 4.59 ± 0.29 h | 8.2 ± 0.32 h | 3.5 h | 5.72 ± 0.24 h | 4.48 ± 0.068 h | 8.702 ± 0.013 h
2 | MPKSVIIPAGSSAPLAPFVPGTLADGVVYVSGTLAFDQHNNVLFADDPKAQTRHVLETIRKVIETAGGTMADVTFNSIFITDWKNYAAINEIYAEFFPGDKPARFCIQCGLVKPDALVEIATIAHIAK [P0AFQ5] |  |  |  |  | 3.86 h |  |  |  |  |  |  | 
3 | MPLIIVVAGIALLLLLTIKIKLNTFVSLIIVSIAVAIASGMDLSKVVTSVESGLGGTLGHIGLIFGFGVMLGRLLADAGGAQRIALTMLNYFGKNKLDWAVVCSAFIVGIALFFEVGLILLVPILFAIAREAKISPMFMCVPMLSGLLVAHGFLPPHPGPTVIAREYGADVGLVLIYGIIVGIPTFILCGPVLNKFCQRIIPDAFKKEGNIASLGATRRFSESEMPGFGISFLTAMLPVILMAVVTIIQMTHAKSAADSGLFYNVILFLGNSTIAMLISLLFAIYTMGLGRGKTIPDLMDSCGKAIAGIAGLLLIIGGGGAFKQVLIDSGVGQYISTLVSGMDINPILMAWGVAAFLRICLGSATVAAISTAGLVIPLLAVHPNTNLALITLATGAGSCICSHVNDASFWMIKDFFGLTTKETLLSWTLMSTLLSISGLIFILLASLVL |  |  |  |  | 6.77 h | 3.22 h |  |  |  |  |  | 
4 | MPLLDIRNLTIEFKTGDEWVKAVDRVSMTLTEGEIRGLVGESGSGKSLIAKAICGVNKDNWRVTADRMRFDDIDLLRLSARERRKLVGHNVSMIFQEPQSCLDPSERVGRQLMQNIPAWTYKGRWWQRFGWRKRRAIELLHRVGIKDHKDAMRSFPYELTEGECQKVMIAIALANQPRLLIADEPTNSMEPTTQAQIFRLLTRLNQNSNTTILLISHDLQMLSQWADKINVLYCGQTVETAPSKELVTMPHHPYTQALIRAIPDFGSAMPHKSRLNTLPGAIPLLEQLPIGCRLGPRCPYAQRECIVTPRLTGAKNHLYACHFPLNMEKE [P0AAH4] | 6.47 ± 1 h | 5.65 ± 0.24 h | 5.68 ± 0.59 h | 5.96 ± 0.44 h | 5.11 ± 0.24 h | 2.86 ± 0.12 h | 5.52 ± 0.2 h | 11.19 ± 0.067 h | 5.58 ± 0.23 h | 10.5 ± 0.24 h | 5.43 ± 0.13 h | 10.9 ± 0.29 h
5 | MPLLHLLRQNPVIAAVKDNASLQLAIDSECQFISVLYGNICTISNIVKKIKNAGKYAFIHVDLLEGASNKEVVIQFLKLVTEADGIISTKASMLKAARAEGFFCIHRLFIVDSISFHNIDKQVAQSNPDCIEILPGCMPKVLGWVTEKIRQPLIAGGLVCDEEDARNAINAGVVALSTTNTGVWTLAKKLL |  |  |  |  | 3.74 h | 2.77 ± 0.24 h | 4.77 ± 0.7 h | 12.1 ± 1.7 h |  |  |  | 8.94 h
6 | MPLLKLWAGSLVMLAAVSLPLQAASPVKVGSKIDTEGALLGNIILQVLESHGVPTVNKVQLGTTPVVRGAITSGELDIYPEYTGNGAFFFKDENDAAWKNAQQGYEKVKKLDSEHNKLIWLTPAPANNTWTIAVRQDVAEKNKLTSLADLSRYLQEGGTFKLAASAEFIERADALPAFEKAYGFKLGQDQLLSLAGGDTAVTIKAAAQQTSGVNAAMAYGTDGPVAALGLQTLSDPQGVQPIYAPAPVVRESVLREYPQMAQWLQPVFASLDAKTLQQLNASIAVEGLDAKKVAADYLKQKGWTK | 4.32 ± 0.22 h | 5 ± 0.74 h | 6.28 ± 0.2 h | 7.16 ± 0.13 h | 5.47 ± 0.21 h | 3.08 ± 0.17 h | 5.7 ± 0.057 h | 9.88 ± 1.8 h | 5.95 ± 0.34 h | 12 ± 0.96 h | 6.08 ± 0.75 h | 12 ± 0.14 h
7 | MPLPDFRLIRLLPLAALVLTACSVTTPKGPGKSPDSPQWRQHQQDVRNLNQYQTRGAFAYISDQQKVYARFFWQQTGQDRYRLLLTNPLGSTELELNAQPGNVQLVDNKGQRYTADDAEEMIGKLTGMPIPLNSLRQWILGLPGDATDYKLDDQYRLSEITYSQNGKNWKVVYGGYDTKTQPAMPANMELTDGGQRIKLKMDNWIVK | 5.8 ± 0.1 h | 6.43 ± 0.19 h |  |  | 6.06 ± 0.35 h | 3.18 ± 0.06 h | 6.24 ± 0.15 h | 11.8 ± 0.91 h | 6.37 ± 0.46 h | 13.22 ± 0.027 h | 6.17 ± 0.18 h | 13.7 ± 0.68 h
8 | MPLRRFSPGLKAQFAFGMVFLFVQPDASAADISAQQIGGVIIPQAFSQALQDGMSVPLYIHLAGSQGRQDDQRIGSAFIWLDDGQLRIRKIQLEESEDNASVSEQTRQQLMALANAPFNEALTIPLTDNAQLDLSLRQLLLQLVVKREALGTVLRSRSEDIGQSSVNTLSSNLSYNLGVYNNQLRNGGSNTSSYLSLNNVTALREHHVVLDGSLYGIGSGQQDSELYKAMYERDFAGHRFAGGMLDTWNLQSLGPMTAISAGKIYGLSWGNQASSTIFDSSQSATPVIAFLPAAGEVHLTRDGRLLSVQNFTMGNHEVDTRGLPYGIYDVEVEVIVNGRVISKRTQRVNKLFSRGRGVGAPLAWQVWGGSFHMDRWSENGKKTRPAKESWLAGASTSGSLSTLSWAATGYGYDNQAVGETRLTLPLGGAINVNLQNMLASDSSWSSIGSISATLPGGFSSLWVNQEKTRIGNQLRRSDADNRAIGGTLNLNSLWSKLGTFSISYNDDRRYNSHYYTADYYQNVYSGTFGSLGLRAGIQRYNNGDSNANTGKYIALDLSLPLGNWFSAGMTHQNGYTMANLSARKQFDEGTIRTVGANLSRAISGDTGDDKTLSGGAYAQFDARYASGTLNVNSAADGYVNTNLTANGSVGWQGKNIAASGRTDGNAGVIFNTGLEDDGQISAKINGRIFPLNGKRNYLPLSPYGRYEVELQNSKNSLDSYDIVSGRKSRLTLYPGNVAVIEPEVKQMVTVSGRIRAEDGTLLANARINNHIGRTRTDENGEFVMDVDKKYPTIDFRYSGNKTCEVALELNQARGAVWVGDVVCSGLSSWAAVTQTGEENES |  |  |  |  |  | 2.91 h |  |  |  |  |  | 
9 | MPLVIVAIGVILLLLLMIRFKMNGFIALVLVALAVGLMQGMPLDKVIGSIKAGVGGTLGSLALIMGFGAMLGKMLADCGGAQRIATTLIAKFGKKHIQWAVVLTGFTVGFALFYEVGFVLMLPLVFTIAASANIPLLYVGVPMAAALSVTHGFLPPHPGPTAIATIFNADMGKTLLYGTILAIPTVILAGPVYARVLKGIDKPIPEGLYSAKTFSEEEMPSFGVSVWTSLVPVVLMAMRAIAEMILPKGHAFLPVAEFLGDPVMATLIAVLIAMFTFGLNRGRSMDQINDTLVSSIKIIAMMLLIIGGGGAFKQVLVDSGVDKYIASMMHETNISPLLMAWSIAAVLRIALGSATVAAITAGGIAAPLIATTGVSPELMVIAVGSGSVIFSHVNDPGFWLFKEYFNLTIGETIKSWSMLETIISVCGLVGCLLLNMVI |  | 6.71 ± 1 h | 5.83 ± 0.38 h | 6.2 ± 0.55 h | 6.06 ± 0.3 h |  |  | 10 ± 0.67 h | 5.75 h | 13 h |  | 
